Data set [1] has as its target T1, GST-ONAC022 (Oryza sativa (rice), UniProt Q10S65 1-316).
T1 sequence: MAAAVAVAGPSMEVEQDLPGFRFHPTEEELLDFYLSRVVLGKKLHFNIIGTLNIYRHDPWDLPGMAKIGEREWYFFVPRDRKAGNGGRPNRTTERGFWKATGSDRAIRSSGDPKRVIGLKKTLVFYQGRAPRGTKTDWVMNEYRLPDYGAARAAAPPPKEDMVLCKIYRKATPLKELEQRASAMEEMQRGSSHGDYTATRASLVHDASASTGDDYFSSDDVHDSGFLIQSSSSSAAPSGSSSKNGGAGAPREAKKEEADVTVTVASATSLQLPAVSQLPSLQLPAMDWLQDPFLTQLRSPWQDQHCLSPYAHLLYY
The data set can be described thus: EMSA; self-competition by 200x unlabeled wNACRS attenuates the shift; 10 uL with 5x EMSA buffer (Beyotime chemiluminescent EMSA kit), 2 ug protein, 1 uL biotin probe; competitor preincubated 20 min; 8% native PAGE; salt, pH and temperature not stated. The note with it: protein: recombinant; tags: N-terminal GST (pGEX-6p-1); chain copies: 2; blunt. On the technique in general: In EMSA bound probe runs differently from free probe, usually more slowly.

Data set [2] deals with T1, GST-ONAC022. The data set can be described thus: EMSA; 10 uL with 5x EMSA buffer (Beyotime chemiluminescent EMSA kit), 2 ug protein, 1 uL biotin probe; competitor preincubated 20 min; 8% native PAGE; salt, pH and temperature not stated. The settings on record: protein: recombinant; tags: N-terminal GST (pGEX-6p-1); chain copies: 2; blunt.

B1: wNACRS (dsDNA)
DNA 1: ATCGCATGTGGAGCACGGAGCACGTTTT
DNA 2: AAAACGTGCTCCGTGCTCCACATGCGAT
As for B1, in the data set with GST-ONAC022 [1], the binding result was “binds”.

B2: mNACRS (dsDNA)
DNA 1: ATCGAAAAAAGAGAAAAGAGAAAATTTT
DNA 2: AAAATTTTCTCTTTTCTCTTTTTTCGAT
Take B2: in the data set with GST-ONAC022 [2], the binding result is on record as “no binding”.

The record behind these values is publication PMC4722120, “Overexpression of a Stress-Responsive NAC Transcription Factor Gene ONAC022 Improves Drought and Salt Tolerance in Rice”.
